According to patent publication US20220064329A1 (Novo Nordisk, published 2022):

T1: recombinant human activated Factor VII (FVIIa) (human, UniProt P08709 61-212; P08709 213-466, Gla domain: ten glutamate residues may be gamma-carboxylated)
T1 sequence 1: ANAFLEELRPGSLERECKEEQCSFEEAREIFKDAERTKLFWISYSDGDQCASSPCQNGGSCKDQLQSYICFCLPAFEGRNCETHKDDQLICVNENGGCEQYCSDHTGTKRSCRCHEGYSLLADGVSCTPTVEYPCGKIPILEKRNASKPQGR
T1 sequence 2: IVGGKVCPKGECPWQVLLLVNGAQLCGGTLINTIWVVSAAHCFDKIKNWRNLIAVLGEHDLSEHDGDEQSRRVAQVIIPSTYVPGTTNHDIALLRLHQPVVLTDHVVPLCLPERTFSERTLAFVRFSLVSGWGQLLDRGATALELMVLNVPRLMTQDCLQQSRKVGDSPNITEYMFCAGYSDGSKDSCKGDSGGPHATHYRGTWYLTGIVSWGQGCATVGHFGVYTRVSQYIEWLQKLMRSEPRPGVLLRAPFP

T2: recombinant human activated FVII (FVIIa) (human, UniProt P08709 61-212; P08709 213-466, ten glutamate residues of the Gla domain may be gamma-carboxylated)
T2 sequence 1: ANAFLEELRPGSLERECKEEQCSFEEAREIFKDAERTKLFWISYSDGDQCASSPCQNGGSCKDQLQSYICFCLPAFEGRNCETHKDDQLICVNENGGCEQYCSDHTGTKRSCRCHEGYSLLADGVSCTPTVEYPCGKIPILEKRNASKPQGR
T2 sequence 2: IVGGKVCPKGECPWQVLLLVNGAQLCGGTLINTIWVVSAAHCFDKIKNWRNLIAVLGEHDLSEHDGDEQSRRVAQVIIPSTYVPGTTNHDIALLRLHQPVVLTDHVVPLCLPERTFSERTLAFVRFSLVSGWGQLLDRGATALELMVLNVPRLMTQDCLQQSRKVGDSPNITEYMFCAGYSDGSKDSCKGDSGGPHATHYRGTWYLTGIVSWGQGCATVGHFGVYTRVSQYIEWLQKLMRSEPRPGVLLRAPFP

T3: sTLT1 (SEQ ID No: 3 with six histidine residues added at the C-terminus) (human, UniProt Q86YW5 16-162)
T3 construct: Soluble TLT-1 used in SPR
T3 sequence: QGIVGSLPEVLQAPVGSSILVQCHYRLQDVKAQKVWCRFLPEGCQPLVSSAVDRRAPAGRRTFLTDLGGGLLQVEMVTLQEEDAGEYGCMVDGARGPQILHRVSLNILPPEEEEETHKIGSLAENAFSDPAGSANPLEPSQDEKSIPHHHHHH


Legend:
[1] = biological target: T1, recombinant human activated Factor VII …; assay: cell-based or functional assay
[2] = biological target: T1, recombinant human activated Factor VII …; assay: SPR (Biacore T200), antibody captured on anti-murine IgG, FVIIa injected at 5-135 nM, 1:1 model
Procedure: Anti-murine IgG (by GE Healthcare) was immobilised on a CM4 sensor chip using standard amine coupling chemistry kit (both supplied by GE Healthcare). […] The running buffer was prepared by diluting 10-fold the 10×HBS-P buffer (supplied by GE Healthcare) and supplemented with 1 mg/ml BSA and 5 mM CaCl₂) to give 10 mM HEPES, 150 mM NaCl, 0.05% v/v Polysorbate 20(P20), pH 7.4, 5 mM CaCl₂), 1 mg/ml bovine serum albumin (BSA). […] Regeneration of the chip was achieved using regeneration buffer consisting of 10 mM Gly-HCl pH 1.7 (supplied by GE Healthcare). Binding data were analysed according to a 1:1 model using BiaEvaluation 4.1 supplied by the manufacturer (Biacore AB, Uppsala, Sweden).

[3] = biological target: T2, recombinant human activated FVII (FVIIa); assay: cell-based or functional assay
[4] = biological target: T2, recombinant human activated FVII (FVIIa); assay: dissociation constant listed with the stimulatory activities; method not given
[5] = biological target: T3, sTLT1 (SEQ ID No: 3 with six histidine …); assay: dissociation constant listed with the stimulatory activities; value of the anti-TLT-1 arm

Binder	AT inhibition (kinh %) [1]	TGT activity (% FVIIa) [1]	Kd [2]	Stimulation (fold): FXa generated by FVIIa with lipidated TLT-1 and 100 nM biAb, relative to free FVIIa [3]	Kd [4]	Kd [5]
mAb0578 (antibody, V domains shown, fully murine, hybridoma-derived; also called 12F19) VH: QVQLQQSGAELMKPGASVKISCKATGYTFNTYWIEWVKQRPGHGLEWIGEILPGRGTTNYNENFKGKATITADISSNTAYLQLSSLTGEDSAVYYCARLTPLSLRTGYWGQGTTLTVSS VL: DILLTQSPAILSVSPGERVSFSCRASQSIGTSIHWYQQRTNGSPRLLIKYASESISGIPSRFSGSGSGTDFTLSINSVESEDIADYYCQQSNSWPFTFGSGTKLEIK	77%	91 % FVIIa	0.58 nM			
mAb0007 (antibody, V domains shown, fully murine, hybridoma-derived; also called 11F34) VH: DVQLQESGPGLVEPSQSLSLTCTVTGYSITSDCAWSWIRQFPGNKLEWMGYINYSGSTNYNPSLKSRISITRDTSKNQFFLRLNSVTGEDTATYYCARSVNYYGNSFAVGYWGQGTSVTVSS VL: DIVMTQSPATLSVTPGDRVSLSCRASQSISDYLHWYQHKSHESPRLLIKYVSQPISGIPSRFSGSGSGSEFTLSINSVEPEDVGVYYCQNGHSFPLTFGAGTKLELK	121%	113 % FVIIa	0.25 nM			
mAb0544 (antibody, V domains shown, fully murine, hybridoma-derived; also called 11F9) VH: DVQLQESGPGLVKPSQSLSLTCTVTGYSITSDCAWNWIRQFPGNKLEWMGYINYSGSTNYNPSLKSRISITRDTSQNHFFLQLSSVTAEDTATYYCTRSVNYYGNSFAVGYWGQGISVTVSS VL: DIVMSQSPATLSVTPGDRVSLSCRTSQDIGDYLHWYRQKSHESPRLLIKYTSQSVSGIPSRFSGSGSGSDFTLSINTVEPEDVGLYYCQNGHSFPLTFGTGTRLELK	111%	103 % FVIIa	0.27 nM			
mAb0552 (antibody, V domains shown, fully murine, hybridoma-derived; also called 11F18) VH: DVQLQESGPGLVKPSQSLSLTCTVTGYSITSDCAWNWIRQFPGNKLEWMGYINYSGSTNYNPSLKSRISITRDTSKNHFFLQLNSVTAEDTATYYCARSVDYFGNSFAVGYWGQGTSVAVSS VL: DIVMTQSPATLSVTPGDRVSLSCRASQSISDYLHWYQQKSHESPRLLIKYSSQSISGIPSRFSGSGSGSDFTLSINSVEPEDVGVYYCQNGHSFPLTFGAGTKLELK	118%	104 % FVIIa	0.76 nM			
mAb0005 (antibody, V domains shown, fully murine, hybridoma-derived; also called 11F2; mAb005) VH: DVQLQESGPGLVEPSQSLSLTCTVTGYSITSDCAWSWIRQFPGNKLEWMGYINYSGSTNYNPSLKSRISVTRDTSKNQFFLRLSSVTAEDTATYYCTRSVNYYGNSFAVGYWGQGTSVTVSS VL: DIVMTQSPATLSVTAGDRVSLSCRASQGISDYLHWYQQKSHESPRLLIKYTSQPVSGIPSRFSGSGSGSEFTLSINSVEPEDVGVYYCQNGHSFPLTFGAGTKLELK	133%	115 % FVIIa	0.14 nM			
mAb0018 (antibody, V domains shown, fully murine, hybridoma-derived; also called 8F19) VH: QITLKESGPGILKPSQTLSLTCSFSGFSLSTSGLGVGWIRQTSGKGLEWLAHIWWDDDKYYYPPLKSQLTISKDTSRNQVFLKITSVDTADTATYYCARRAFYDGYYGPMEYWGQGTSVTVSS VL: DIVLSQSPSSLAVSVGEKVTMSCKSSQSLLYSSNQKNSLAWYQHKPGQSPKLLIYWASTRESGVPDRFTGSGSGTDFTLTISNVKAEDLAVYYCHQYYNYLLTFGPGTKLELK	525%	141 % FVIIa	9.3 nM			
mAb0004 (antibody, V domains shown, fully murine, hybridoma-derived; also called 11F19) VH: QVQLKESGPGLVAPSQSLSITCTVSGFSLTDYGVSWIRQPPGKGLEWLGVIWGGGNTYNNSALKSRLSISKDNSKSQVFLKMNSLQADDTAMYFCAKHGYYGYVMDYWGQGTSVTVSS VL: DIVMTQSHKIMSTLVGDRVSITCKASQDVDPAVAWYQQKPGQYPKLLIYWASTRHTGVPDRFTGSGSGTDFTLTISNVQSEDLADYFCQQYSKYPYTFGGGTKLEIK	24%	75 % FVIIa	0.16 nM			
mAb0587 (antibody, V domains shown, fully murine, hybridoma-derived; also called 12F39) VH: QVQLQQSGAELLKPGASVKISCKATDYTFSRYWIEWVKQRPGHGLEWIGEILPGSVNIKYNEIFKGKATFTAETSSNTAYMQLSSLTSEDSAVYYCTRTPYLQRGAYWGQGTLVTVSA VL: QIVLTQSPAIMSASPGEKVTITCSASSSVSYMFWFQQKPGTSPKLWIYSTSNLASGVPARFSGSGSGTSYSLTISRMEAEDAATYYCQQRSSYPLTFGAGTKLELK	103%	93 % FVIIa	0.49 nM			
mAb0001 (antibody, V domains shown, fully murine, hybridoma-derived; also called 11F26) VH: EIQLQQTGPELVKPGASVKISCKASGYSFTDYIMVWMKQSQGKTLEWIGKINPYYGDISYNLKFKGKATLTVDKSSSTVYMQLNSLASEDSAVYYCARGFYYDYFDQWGQGTTLTVSS VL: DVMVTQTPLSLPVNLGDQASISCRSSQSLVHSNGNTYLHWYLQKPGQSPKLLIYRVSDRFSGVPDRFSGSGSGTDFTLKISRVEAEDLGVYFCSQSTHVPPTFGGGTKLEIK	82%	109 % FVIIa	0.17 nM			
biAb0093 (bispecific antibody, human IgG4 S228P, kappa, Duobody, constant domain type H (IgG4): anti-FVII(a) arm mAb0874, anti-TLT-1 arm mAb1049; also called mAb0874 x mAb1049) heavy 1: DVQLQESGPGLVEPSQTLSLTCTVSGYSITSDSAWSWIRQFPGKKLEWMGYIQYSGSTNYNPSLKSRVTISRDTSKNQFSLKLSSVTAEDTAVYYCARSVNYYGNSFAVDYWGQGTSVTVSSASTKGPSVFPLAPCSRSTSESTAALGCLVKDYFPEPVTVSWNSGALTSGVHTFPAVLQSSGLYSLSSVVTVPSSSLGTKTYTCNVDHKPSNTKVDKRVESKYGPPCPPCPAPEFLGGPSVFLFPPKPKDTLMISRTPEVTCVVVDVSQEDPEVQFNWYVDGVEVHNAKTKPREEQFNSTYRVVSVLTVLHQDWLNGKEYKCKVSNKGLPSSIEKTISKAKGQPREPQVYTLPPSQEEMTKNQVSLTCLVKGFYPSDIAVEWESNGQPENNYKTTPPVLDSDGSFLLYSKLTVDKSRWQEGNVFSCSVMHEALHNHYTQKSLSLSLGK light 1: EIVLTQSPATLSLSPGERATLSCRASQGISDYLHWYQQKPGEAPRLLIKYTSQPATGIPARFSGSGSGTDFTLTISSLEPEDVGVYYCQNGHSFPLTFGAGTKLELKRTVAAPSVFIFPPSDEQLKSGTASVVCLLNNFYPREAKVQWKVDNALQSGNSQESVTEQDSKDSTYSLSSTLTLSKADYEKHKVYACEVTHQGLSSPVTKSFNRGEC heavy 2: not shown light 2: DIVMTQTPLSSPVTLGQPASISCRSSQSLVHRNGNTYFHWLQQRPGQPPRLLIYKVSNRFSGVPDRFSGSGAGTDFTLKISRVEAEDVGVYYCSQSTHVPYTFGQGTKLEIKRTVAAPSVFIFPPSDEQLKSGTASVVCLLNNFYPREAKVQWKVDNALQSGNSQESVTEQDSKDSTYSLSSTLTLSKADYEKHKVYACEVTHQGLSSPVTKSFNRGEC				9.6 fold	16.2 nM	320 nM
